{"source": "patent CN116744966A", "biological_target": "SARS-CoV-2 spike protein (wild type) on pseudovirus (SARS-CoV-2) (UniProt P0DTC2)", "assay": "cell-based or functional assay"}
{"substance": "ACE2-Ig (positive control of the pseudovirus neutralisation assay) (Fc fusion)", "values": [{"measurement": "IC50, pseudovirus neutralisation (positive control)", "value": 0.9, "unit": "µg/mL"}]}
